Here are results for two molecules from patent publication US20250076311A1 (Chugai, published 2025).

For assay [1], the target named is T1, cynomolgus monkey FcγRIIIaS extracellular domain with C-terminal His-tag (cynomolgus monkey, UniProt A3RFZ7 21-206 (rhesus entry)).
T1 construct: also called cyno FcgRIIIaS; cynoFcγRIIIaS; not shown: His-tag added to the C-terminus
Put plainly: SPR (BIACORE); KD of SG1 / KD of variant.

Assay [2] concerns the target T2, human FcγRIIaH extracellular domain with C-terminal His-tag (human, UniProt P12318 34-217).
T2 construct: also called human FcgRIIaH; FcγRIIa type H; not shown: His-tag added to the C-terminus
T2 sequence: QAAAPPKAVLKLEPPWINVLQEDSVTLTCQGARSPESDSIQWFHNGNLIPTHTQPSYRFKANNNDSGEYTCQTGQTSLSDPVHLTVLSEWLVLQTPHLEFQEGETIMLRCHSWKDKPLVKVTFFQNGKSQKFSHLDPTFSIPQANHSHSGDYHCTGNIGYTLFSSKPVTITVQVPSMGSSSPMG
Put plainly: SPR (BIACORE); KD of SG1 / KD of variant. (Surface plasmon resonance follows binding to a sensor surface in real time, without labels.)

Assay [3] concerns the target T1, cynomolgus monkey FcγRIIIaS …. Put plainly: SPR (BIACORE), antibody captured, FcgR analyte.
The target in assay [4] is T3, human FcγRIIaR extracellular domain with C-terminal His-tag (human, UniProt P12318 34-217).
T3 construct: also called human FcgRIIaR; FcγRIIa type R; not shown: His-tag added to the C-terminus
T3 chain: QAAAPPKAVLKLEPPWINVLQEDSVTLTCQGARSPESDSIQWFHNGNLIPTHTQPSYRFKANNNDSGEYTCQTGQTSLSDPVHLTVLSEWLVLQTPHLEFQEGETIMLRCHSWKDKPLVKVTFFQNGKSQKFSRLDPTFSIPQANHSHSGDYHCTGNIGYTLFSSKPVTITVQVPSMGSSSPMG
Kind of assay: SPR (BIACORE), antibody captured, FcgR analyte.

Assay [5] has as its target T4, human FcγRIIIaV extracellular domain with C-terminal His-tag (human, UniProt P08637 17-208).
T4 construct: also called human FcgRIIIaV; not shown: His-tag added to the C-terminus
Kind of assay: SPR (BIACORE), antibody captured, FcgR analyte.

Assay [6] addresses T5, cynomolgus monkey FcγRIIa1 extracellular domain with C-terminal His-tag (cynomolgus monkey).
T5 construct: also called cyno FcgRIIa1; cynoFcγRIIa1; not shown: His-tag added to the C-terminus
T5 chain: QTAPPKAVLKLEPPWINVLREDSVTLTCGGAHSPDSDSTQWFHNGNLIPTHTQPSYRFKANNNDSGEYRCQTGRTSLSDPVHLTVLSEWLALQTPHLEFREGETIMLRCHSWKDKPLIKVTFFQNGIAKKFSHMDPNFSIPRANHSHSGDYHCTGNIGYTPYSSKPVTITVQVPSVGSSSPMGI
Put plainly: SPR (BIACORE), antibody captured, FcgR analyte.

The target of assay [7] is T6, cynomolgus monkey FcγRIIa2 extracellular domain with C-terminal His-tag (cynomolgus monkey).
T6 construct: also called cyno FcgRIIa2; cynoFcγRIIa2; not shown: His-tag added to the C-terminus
T6 chain: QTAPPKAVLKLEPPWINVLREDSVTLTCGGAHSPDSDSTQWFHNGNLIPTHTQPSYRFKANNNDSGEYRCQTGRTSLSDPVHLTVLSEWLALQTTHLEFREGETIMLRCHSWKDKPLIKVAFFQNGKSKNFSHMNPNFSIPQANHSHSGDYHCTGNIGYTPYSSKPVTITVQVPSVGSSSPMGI
Put plainly: SPR (BIACORE), antibody captured, FcgR analyte.

For assay [8], the target named is T7, cynomolgus monkey FcγRIIa3 extracellular domain with C-terminal His-tag (cynomolgus monkey).
T7 construct: also called cyno FcgRIIa3; cynoFcγRIIa3; not shown: His-tag added to the C-terminus
T7 chain: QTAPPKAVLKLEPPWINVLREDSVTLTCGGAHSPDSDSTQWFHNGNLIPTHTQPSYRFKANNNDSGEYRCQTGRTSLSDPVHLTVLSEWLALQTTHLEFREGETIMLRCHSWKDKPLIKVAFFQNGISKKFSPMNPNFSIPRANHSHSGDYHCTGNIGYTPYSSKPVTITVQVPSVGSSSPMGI
Put plainly: SPR (BIACORE), antibody captured, FcgR analyte.

Assay [9] addresses T8, cynomolgus monkey FcγRIIb extracellular domain with C-terminal His-tag (cynomolgus monkey).
T8 construct: also called cyno FcgRIIb; cynoFcγRIIb; not shown: His-tag added to the C-terminus
T8 chain: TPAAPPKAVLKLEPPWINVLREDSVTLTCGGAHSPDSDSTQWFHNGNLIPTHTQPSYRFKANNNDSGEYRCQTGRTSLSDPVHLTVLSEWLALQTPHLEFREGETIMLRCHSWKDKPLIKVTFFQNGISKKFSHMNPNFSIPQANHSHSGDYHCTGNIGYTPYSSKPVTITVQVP
Kind of assay: SPR (BIACORE), antibody captured, FcgR analyte.

In assay [10] the target is T9, human FcγRIIb extracellular domain with C-terminal His-tag (human, UniProt P31994 43-217).
T9 construct: also called human FcgRIIb; not shown: His-tag added to the C-terminus
T9 sequence: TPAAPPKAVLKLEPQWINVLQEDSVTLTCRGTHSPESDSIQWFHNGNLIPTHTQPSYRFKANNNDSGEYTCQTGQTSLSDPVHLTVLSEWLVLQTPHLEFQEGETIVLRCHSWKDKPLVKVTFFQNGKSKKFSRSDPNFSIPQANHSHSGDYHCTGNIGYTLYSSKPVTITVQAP
Put plainly: SPR (BIACORE), antibody captured, FcgR analyte.

One may read the Kd as the constant that tells how readily two partners part at equilibrium.

T1 sequence (A3RFZ7 21-206): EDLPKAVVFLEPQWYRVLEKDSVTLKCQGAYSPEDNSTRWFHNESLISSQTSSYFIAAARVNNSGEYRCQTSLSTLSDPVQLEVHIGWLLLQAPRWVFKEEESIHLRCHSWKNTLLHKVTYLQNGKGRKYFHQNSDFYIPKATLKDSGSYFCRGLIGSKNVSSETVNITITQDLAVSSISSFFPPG
T4 sequence (P08637 17-208 F176V): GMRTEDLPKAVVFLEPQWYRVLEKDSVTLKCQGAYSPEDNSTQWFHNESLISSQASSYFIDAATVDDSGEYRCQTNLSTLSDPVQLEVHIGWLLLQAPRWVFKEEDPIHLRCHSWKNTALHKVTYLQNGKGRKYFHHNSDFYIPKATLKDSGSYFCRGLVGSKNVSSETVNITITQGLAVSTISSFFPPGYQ

B1: M103205H795-MY117/M103202L889-SK1 (antibody)
heavy: QVTLKESGPVLVKPTETLTLTCTVSGIDLSHDDISWVRQAPGKGLEWVGIISYAGSTYYASWAKGRLTISKDTSKNQVVLTMTNMDPVDTATYYCARGVPAYSHGGDLWGQGTLVTVSSASTKGPSVFPLAPSSKSTSGGTAALGCLVKDYFPEPVTVSWNSGALTSGVHTFPAVLQSSGLYSLSSVVTVPSSSLGTQTYICNVNHKPSNTKVDKKVEPKSCDKTHTCPPCPAPEWLNGPSVFLFPPKPKDTLMISRTPEVTCVVVDVAEEDPEVKFNWYVDGVEVHNAKTKPREEQYNSTYRVVSVLTVLHQDWLNGKEYKCKVSNKALPAPIEKTISKAKGQPREPQVYTLPPSREEMTKNQVSLTCLVKGFYPSDIAVEWESNGQPENNYKTTPMVLDSDGSFFLYSKLTVDKSRWQQGNVFSCSVMHEALHNHYTQKSLSLSP
light: DIVMTQSPATLSLSPGERATLSCTSSQSVYHANWLSWFQQKPGQPPKLLIYWASTLAYGVPSRFSGSGSGTDFTLTISSLQPEDAATYYCAGGYGGGRYAFGQGTKVEIKRTVAAPSVFIFPPSDEQLKSGTASVVCLLNNFYPREAKVQWKVDNALQSGNSQESVTEQDSKDSTYSLSSTLTLSKADYEKHKVYACEVTHQGLSSPVTKSFNRGEC
notes: Fc variant of MS1032LO06-SG1; EU numbering
As for B1, the “KD fold (SG1 = 1)” value turned out to be 0.36 fold in [1] and 0.5 fold in assay [2]. Besides, the Kd came out at 1000 nM in assay [3], 1000 nM in assay [4] and 7900 nM in assay [5].

B2: M103205H795-MY145/M103202L889-SK1 (antibody, human IgG1, kappa, name in EU numbering)
heavy: QVTLKESGPVLVKPTETLTLTCTVSGIDLSHDDISWVRQAPGKGLEWVGIISYAGSTYYASWAKGRLTISKDTSKNQVVLTMTNMDPVDTATYYCARGVPAYSHGGDLWGQGTLVTVSSASTKGPSVFPLAPSSKSTSGGTAALGCLVKDYFPEPVTVSWNSGALTSGVHTFPAVLQSSGLYSLSSVVTVPSSSLGTQTYICNVNHKPSNTKVDKKVEPKSCDKTHTCPPCPAPELLNGPSVFLFPPKPKDTLMISRTPEVTCVVVDVSEEDPEVKFNWYVDGVEVHNAKTKPREEQYNSTYRVVSVLTVLHQDWLNGKEYKCKVSNKALPAEIEKTISKAKGQPREPQVYTLPPSREEMTKNQVSLTCLVKGFYPSDIAVEWESNGQPENNYKTTPMVLDSDGSFFLYSKLTVDKSRWQQGNVFSCSVMHEALHNHYTQKSLSLSP
light: DIVMTQSPATLSLSPGERATLSCTSSQSVYHANWLSWFQQKPGQPPKLLIYWASTLAYGVPSRFSGSGSGTDFTLTISSLQPEDAATYYCAGGYGGGRYAFGQGTKVEIKRTVAAPSVFIFPPSDEQLKSGTASVVCLLNNFYPREAKVQWKVDNALQSGNSQESVTEQDSKDSTYSLSSTLTLSKADYEKHKVYACEVTHQGLSSPVTKSFNRGEC
notes: Fc variant of MS1032LO06-SG1; positions in EU numbering
On to B2, for which the dissociation constant (Kd) was found to be 1900 nM in assay [6]; 2400 nM in assay [7]; 10000 nM in [8]; 980 nM in assay [9]; 3600 nM in [3]; 2500 nM in assay [4]. The Kd in assay [10] was determined as 1200 nM; in assay [5], 9100 nM.
